Experiment [1] addresses Flag-LegA15 used in the GST pulldown of Fig. 2E (Legionella pneumophila Philadelphia, UniProt Q5ZSR1). Kind of experiment: pull-down. The note with it: both partners purified.
Experiment [2] addresses 6×His-LegA15, full-length (Legionella pneumophila Philadelphia, UniProt Q5ZSR1 1-471). Nature of the experiment: pull-down. Conditions: both partners purified.

From paper PMC9757750 (Science Advances, 2022) come the findings set out here.

B1: GST-p115 (1 to 651), ND (domain or fragment, human, UniProt O60763 1-651, looked up)
chain: MNFLRGVMGGQSAGPQHTEAETIQKLCDRVASSTLLDDRRNAVRALKSLSKKYRLEVGIQAMEHLIHVLQTDRSDSEIIGYALDTLYNIISNEEEEEVEENSTRQSEDLGSQFTEIFIKQQENVTLLLSLLEEFDFHVRWPGVKLLTSLLKQLGPQVQQIILVSPMGVSRLMDLLADSREVIRNDGVLLLQALTRSNGAIQKIVAFENAFERLLDIISEEGNSDGGIVVEDCLILLQNLLKNNNSNQNFFKEGSYIQRMKPWFEVGDENSGWSAQKVTNLHLMLQLVRVLVSPTNPPGATSSCQKAMFQCGLLQQLCTILMATGVPADILTETINTVSEVIRGCQVNQDYFASVNAPSNPPRPAIVVLLMSMVNERQPFVLRCAVLYCFQCFLYKNQKGQGEIVSTLLPSTIDATGNSVSAGQLLCGGLFSTDSLSNWCAAVALAHALQENATQKEQLLRVQLATSIGNPPVSLLQQCTNILSQGSKIQTRVGLLMLLCTWLSNCPIAVTHFLHNSANVPFLTGQIAENLGEEEQLVQGLCALLLGISIYFNDNSLESYMKEKLKQLIEKRIGKENFIEKLGFISKHELYSRASQKPQPNFPSPEYMIFDHEFTKLVKELEGVITKAIYKSSEEDKKEEEVKKTLEQHDNI
notes: also called N-terminal ARM domain; globular head
Consider B1, for which the binding result in experiment [1] and in experiment [2] was “binds” in each case.
